B1: EEHEE_rd3_1049 (parent)
chain: TTVKLGDIKVTFDNPEKAKKYAQKLAKIYQLTVHVHGDTIHVK

Variants of: B1
Experiment: folding stability dG (cDNA display proteolysis); higher = more stable
Settings: PBS, room temperature

Folding stability dG [kcal/mol] of substitutions, site by site:
K19: T 1.55 | Y 2.9 | I 2.54 | L 3.31 | Q 1.89 | E 1.47 | A 1.9 | V 1.97 | N 1.64 | P -0.502 | D 0.873 | C 3.38 | H 2.14 | M 3.54 | S 1.49 | W 3.16 | F 2.93 | R 2.23 | G 0.985
A18: R 0.343 | F 0.877 | P -0.013 | K 0.046 | H 0.152 | G 0.641 | C 2.03 | V 0.492 | Q 0.175 | W 1.26 | S 0.232 | T 0.288 | M 0.64 | I 0.682 | E -0.325 | N 0.152 | L 0.902 | D -0.113 | Y 0.624
Y29: W 1.67 | S 0.482 | P 0.516 | E 0.087 | F 2.11 | R 0.806 | H 1.31 | N 0.582 | L 1.87 | K 0.669 | V 0.558 | Q 0.374 | G 0.581 | A 0.547 | D -0.065 | M 1.26 | T 0.658 | I 0.716
I28: Y 2.14 | C 2.92 | P -0.832 | D 1.08 | S 1.05 | G 0.349 | E 1.47 | M 2.36 | A 1.65 | R 2.4 | T 1.48 | F 2.02 | H 1.64 | Q 1.88 | W 2.15 | N 1.01 | V 1.56 | L 2.33 | K 2.48
V33: A 0.869 | I 2.37 | P 0.242 | C 2.12 | T 1.11 | K -0.112 | Y 1.54 | W 1.85 | D -0.143 | S 0.464 | E 0.147 | F 1.6 | Q 0.334 | L 2.1 | N -0.39 | G 0.145 | H 0.305 | M 1.78 | R -0.171
Q30: R 1.98 | Y 1.65 | I 1.28 | F 1.87 | M 1.92 | D 2.08 | W 1.71 | T 1.34 | N 2.58 | L 1.48 | H 2.42 | K 2.2 | P 0.614 | S 2.06 | G 3.23 | E 1.62 | A 1.89 | V 1.24
L31: F 1.49 | W 1.26 | Y 1.31 | E 0.002 | A 1.56 | P -0.519 | S 0.893 | D -0.096 | T 1.06 | R 0.613 | M 2.18 | K 0.541 | V 1.08 | G 1.66 | N 0.271 | H 0.811 | Q 0.409 | I 1.05
Q23: T 1.64 | P -0.329 | E 2.19 | I 2.03 | R 1.94 | M 2.25 | G 1.06 | K 1.87 | L 2.22 | F 2.14 | C 3.24 | N 1.88 | D 1.91 | V 1.73 | S 1.58 | H 1.9 | W 2.06 | A 2.1 | Y 2.29
K17: D 2.45 | M 2.2 | T 2.15 | I 2 | F 1.84 | C 3.1 | V 2 | W 1.93 | H 2.02 | R 2.02 | P 0.853 | N 1.91 | E 2.32 | L 2.17 | G 1.25 | S 2.05 | Y 1.9 | Q 2.21 | A 2.39
A22: H 0.262 | S 0.584 | M 1.07 | P -0.681 | T 0.394 | K 0.531 | R 0.612 | N 0.115 | W 1.24 | L 1.47 | D -0.543 | E -0.139 | Q 0.388 | G 0.327 | V 1.34 | Y 0.937 | F 1.08 | I 1.48
L25: E -0.772 | F 0.868 | R 0.324 | N -0.312 | Q 0.293 | V 1.26 | T 0.212 | P -0.554 | G -0.255 | Y 0.832 | H 0.021 | S -0.33 | M 1.55 | D -0.607 | W 1.44 | K 0.474 | I 1.83 | C 2.11 | A 0.276
T32: F 1.81 | H 1.6 | K 1.63 | W 1.48 | I 2.01 | D 1.33 | N 1.43 | A 1.79 | R 1.4 | G 1.32 | Q 1.87 | Y 1.69 | V 2.21 | L 1.6 | E 1.82 | C 2.77 | S 1.94 | M 1.75 | P 0.612
A26: M 1.23 | I 1.09 | V 0.862 | H 0.547 | L 1.16 | F 1.11 | N 0.427 | Y 1.01 | G 0.898 | T 0.662 | S 1.23 | P -0.282 | W 1.2 | D 0.078 | C 2.77 | R 1.37 | E 0.645 | Q 0.896 | K 1.02
K20: Y 1.92 | A 2.27 | H 1.67 | W 2.18 | C 2.63 | V 1.78 | E 2.06 | M 2.04 | R 2.21 | P -0.125 | F 1.8 | N 1.66 | G 1.13 | D 1.55 | T 1.57 | I 1.97 | S 1.71 | Q 2.02 | L 2.08
K24: L 2.67 | F 2.87 | N 1.58 | E 1.66 | G 1.23 | Y 3.04 | Q 1.86 | M 2.65 | I 2.28 | S 1.57 | T 1.83 | H 2.27 | W 3.42 | P -0.36 | D 1.36 | V 1.96 | R 2.17 | A 1.98
Y21: H 0.523 | A 0.651 | G -0.676 | W 2.22 | D -0.407 | N -0.383 | R 0.268 | Q -0.123 | P -0.648 | M 0.885 | T 0.282 | L 1.15 | E -0.031 | C 2.04 | S -0.364 | I 0.827 | K -0.234 | V 0.867 | F 2.36
E16: P 0.35 | S 1.7 | H 1.8 | R 1.82 | W 1.93 | Q 1.89 | F 1.9 | T 1.77 | G 1.54 | M 1.91 | K 1.91 | N 1.7 | L 1.92 | Y 1.9 | I 1.98 | V 1.85
K27: R 2.27 | C 2.95 | T 1.75 | S 1.83 | E 2.04 | V 1.61 | G 1.37 | M 2.01 | N 1.65 | W 2.05 | P -0.326 | Y 2.13 | D 1.79 | Q 1.94 | F 2.1 | I 1.79 | H 1.71 | A 2.03 | L 2.1
